We go through two molecules from paper PMC7299998, “Recombinant Bri3 BRICHOS domain is a molecular chaperone with effect against amyloid formation and non-fibrillar protein aggregation” (Scientific Reports, 2020).

Data set [1] concerns the molecule itself. Briefly: negative-stain transmission electron microscopy; oligomers isolated by SEC (Superose 6, 20 mM ammonium acetate pH 8.0), uranyl acetate stain, reference-free 2D classification, Feret's diameters. A general note: In gel filtration, larger molecules generally elute earlier.
Data set [2] concerns the molecule itself. Briefly: SEC; rh BRICHOS alone on Superose 6 10/300 GL, 0.5 ml/min, 20 mM PB, 0.2 mM EDTA pH 8.0 or 20 mM ammonium acetate pH 8.0; hydrodynamic diameter by comparison with standards.
The target of data set [3] is T1, citrate synthase (CS) from porcine heart (porcine, UniProt P00889 28-464).
T1 construct: citrate synthase, mitochondrial, from porcine heart; Used native (fresh) or partly heat-denatured (2 h at 45 °C); the assays tell the two states apart; source: bought: Sigma-Aldrich (from porcine heart)
T1 sequence (looked up): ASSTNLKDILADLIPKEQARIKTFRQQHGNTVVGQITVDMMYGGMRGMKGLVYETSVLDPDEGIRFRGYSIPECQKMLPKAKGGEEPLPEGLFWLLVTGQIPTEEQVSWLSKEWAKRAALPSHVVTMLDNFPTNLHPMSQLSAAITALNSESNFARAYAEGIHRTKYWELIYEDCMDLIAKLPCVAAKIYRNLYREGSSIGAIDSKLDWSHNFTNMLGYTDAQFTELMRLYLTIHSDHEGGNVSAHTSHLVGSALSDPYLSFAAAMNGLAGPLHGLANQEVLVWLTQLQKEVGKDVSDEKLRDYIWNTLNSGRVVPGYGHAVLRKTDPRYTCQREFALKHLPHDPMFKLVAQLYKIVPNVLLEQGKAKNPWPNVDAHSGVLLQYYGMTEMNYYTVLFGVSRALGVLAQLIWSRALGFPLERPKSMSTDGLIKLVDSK
Briefly: SEC; supernatant of CS:rh Bri3 BRICHOS 1:2 molar ratio after 2 h at 45 °C and centrifugation; Superose 6, 20 mM ammonium acetate pH 8.0, 0.7 ml/min; peak fractions by reducing SDS-PAGE. The following applies: both partners purified.

B1: recombinant human (rh) Bri2 BRICHOS domain (domain or fragment, UniProt Q9Y287 90-236, looked up)
chain: GIKYIKDDVILNEPSADAPAALYQTIEENIKIFEEEEVEFISVPVPEFADSDPANIVHDFNKKLTAYLDLNLDKCYVIPLNTSIVMPPRNLLELLINIKAGTYLPQSYLIHEHMVITDRIENIDHLGFFIYRLCHDKETYKLQRRET
notes: Bri2 (ITM2B), human, residues 90-236 (linker part and BRICHOS domain); The modelled and aligned Bri2 BRICHOS is 113-231; the expressed construct is 90-236; Vector pET-32c(+); also called Bri2(90-236); source: E. coli Shuffle T7, purified (Ni-Sepharose from 2 M urea extract, thrombin cleavage, second Ni-Sepharose); not shown: Trx, N-terminal, cleaved; His6, N-terminal, cleaved; S tag, N-terminal, …
With B1, the binding result in data set [1] is given as “binds”.

B2: recombinant human (rh) Bri3 BRICHOS domain (domain or fragment, UniProt Q9NQX7 112-230, looked up)
chain: MELEEDVKIYLDENYERINVPVPQFGGGDPADIIHDFQRGLTAYHDISLDKCYVIELNTTIVLPPRNFWELLMNVKRGTYLPQTYIIQEEMVVTEHVSDKEALGSFIYHLCNGKDTYRL
notes: Bri3, human, residues 112-230 (BRICHOS domain); Bri3 is a 267-residue protein; Mainly high molecular weight oligomers, partly held by disulfide bonds; Calculated monomer mass 17.3 kDa with the S tag; Vector pET-32c(+); also called Bri3(112-230); rh (S-tag) Bri3 BRICHOS; source: E. coli Shuffle T7, purified (Ni-Sepharose from 2 M urea extract, thrombin cleavage, second Ni-Sepharose); not shown: …
As for B2, the binding result in data set [2] and in data set [3] was “binds” in each case.
